Conditions in all cases: remark: other sources report otherwise
The target in assay [1] is HER3, P21860. Briefly: kinetic binding data, method not stated.
Assay [2] concerns the target HER3, P21860. Kind of assay: kinetic binding data, method not stated. This is another data set of the same source.
The next assay concerns the target Her3-his, P21860. Briefly: SPR.

These results are taken from patent US20190233517A1.

B1: Her3 antibody patritumab (antibody, V domains shown)
VH: QVQLQQWGAGLLKPSETLSLTCAVYGGSFSGYYWSWIRQPPGKGLEWIGEINHSGSTNYNPSLKSRVTISVETSKNQFSLKLSSVTAADTAVYYCARDKWTWYFDLWGRGTLVTVSS
VL: not shown
With B1, the Kd with HER3, P21860 [1] is 0.0302 nM; with HER3, P21860 [2], 0.9 nM; in the assay with Her3-his, P21860, 1.28 nM.
